Data from patent publication US20180111972A1 (Stanford University, published 2018).

What was measured:
[1] = target: T1, PDGFRβ-His (residues 1-314 of PDGFR-β with C-terminal hexahistidine tag) (human, UniProt P09619 33-314); experiment: yeast surface display, flow cytometry titration of PDGFRβ-His (panel 'PDGFRβ binding')
T1 construct: range 1-314; Monovalent form, expressed in FreeStyle 293-F cells; also called PDGRβ-His; PDGFR-His
Experimental: (§1) Cells were incubated in large enough volumes to avoid ligand depletion and appropriate time to reach equilibrium. During the last hour of incubation, yeast were incubated with 1:250 dilution of chicken anti-c-Myc (Invitrogen) in PBSA. […] Yeast were washed, pelleted, and resuspended in PBSA immediately before analysis by flow cytometry using BD FACSCalibur or BD Accuri C6. Flow cytometry data were analyzed using FlowJo (v7.6.1 and v10, Treestar) or BD Accuri C6 software. Statistical analysis was performed using GraphPad Prism 6.

[2] = target: T2, soluble PDGFRβ (Fc or His format not stated for the experiment) (human, UniProt P09619 33-532); experiment: yeast surface display titration; table under the panel 'PDGFR binding', Fc or His form not given
T2 construct: extracellular domain

VEGFR2-Fc (R&D Systems) = target: T3, VEGFR2-Fc (R&D Systems) (human, UniProt P35968 20-764); experiment: yeast surface display, flow cytometry: VEGFR2-Fc bound, with and without pre-incubation with 100 nM PDGFRβ-Fc
T3 construct: extracellular domain; Bought reagent; also called VEGFR-Fc; not shown: Fc part, detected with anti-human-IgG (Fc specific)
Experimental: as §1

[3] = target: T1, PDGFRβ-His (residues 1-314 of PDGFR-β …); experiment: yeast surface display titration, flow cytometry
Experimental: as §1

[4] = target: T2, soluble PDGFRβ (Fc or His format not …); experiment: yeast surface display, flow cytometry titration of soluble receptor; panel 'PDGFR binding', Fc or His form not given
[5] = target: T4, VEGFR2-His (residues 1-764 of VEGFR2, Ig-like domains 1-7, with hexahistidine tag) (human, UniProt P35968 20-764); experiment: yeast surface display titration, flow cytometry
T4 construct: range 1-764; Monomeric form, expressed in FreeStyle 293-F cells; also called VEGFR-His
Experimental: as §1

[6] = target: T5, soluble VEGFR2 (Fc or His format not stated for the experiment) (human, UniProt P35968 20-764); experiment: yeast surface display titration; table under the panel 'VEGFR binding', Fc or His form not given
T5 construct: extracellular domain

[7] = target: T6, scPDGF, single-chain version of wild-type PDGF-BB, soluble, FLAG and hexahistidine tags (human); experiment: cell-based or functional assay
T6 chain: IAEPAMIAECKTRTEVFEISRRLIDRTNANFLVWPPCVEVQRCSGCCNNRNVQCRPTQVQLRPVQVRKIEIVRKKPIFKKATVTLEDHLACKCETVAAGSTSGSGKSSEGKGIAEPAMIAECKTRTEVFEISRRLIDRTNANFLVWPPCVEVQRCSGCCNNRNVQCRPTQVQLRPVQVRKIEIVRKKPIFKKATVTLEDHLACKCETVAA

scPDGF, yeast-displayed = target: T7, scPDGF, yeast-displayed (human); experiment: yeast surface display of scPDGF, flow cytometry titration of PDGFRβ-Fc, anti-mouse-Fc detection
T7 chain: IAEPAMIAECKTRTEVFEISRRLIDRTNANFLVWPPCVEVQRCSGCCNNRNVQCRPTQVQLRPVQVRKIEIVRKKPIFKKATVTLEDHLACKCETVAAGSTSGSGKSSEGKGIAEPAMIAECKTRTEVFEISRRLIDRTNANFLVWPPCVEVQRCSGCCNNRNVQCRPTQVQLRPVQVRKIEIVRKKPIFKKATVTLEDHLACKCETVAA
Experimental: as §1
Bound protein was detected using fluorescently-labeled anti-His and anti-mouse-Fc antibodies.

[8] = target: T5, soluble VEGFR2 (Fc or His format not …); experiment: yeast surface display, flow cytometry dot plot: soluble receptor bound (FL1) against surface expression (FL2); receptor concentration not given
[9] = target: T8, human VEGFR on human umbilical vein endothelial cells (HUVECs) (human, UniProt P35968 20-1356); experiment: flow cytometry titration of the soluble FLAG-tagged protein on HUVECs, anti-FLAG detection
T8 construct: The phosphorylation blots on these cells detect VEGFR2
Experimental: (§2) To test binding to VEGFR, human umbilical vein endothelial cells (HUVECs) and murine angiosarcoma endothelial cells (SVR) were used.
(§3) Cell-binding assay. Varying concentrations of scPDGF, scVEGF, and PDGF/VEGF ligands were incubated with 25,000 PDGFR- or VEGFR-expressing cells in binding buffer (20 mM Tris pH 7.5 with 1 mM MgCl₂, 1 mM MnCl₂, 2 mM CaCl₂, 100 mM NaCl, and 1 mg/ml BSA) for 5 hr (BJ-5ta, NIH/3T3) or 3 hr (HUVEC, SVR) at 4° C. Cells were washed and pelleted, then incubated with 1:100 R-PE-conjugated anti-FLAG antibody (Prozyme) for 15 min on ice. Cells were washed, pelleted, and resuspended in binding buffer immediately before analysis by flow cytometry using BD Accuri C6. Flow cytometry data were analyzed using BD Accuri C6 software, and statistical analysis was performed using GraphPad Prism 6.

[10] = target: T1, PDGFRβ-His (residues 1-314 of PDGFR-β …); experiment: KinExA Kinetics Injection
Experimental: (§4) Additionally, the kinetic parameter kₒₙ can be determined by using a “kinetics injection” experiment. A constant concentration of PDGF/VEGF ligand is injected with an equal volume of differing concentrations of PDGRβ-His or VEGFR2-His. The two solutions are allowed to mix briefly (several seconds) in the time required for the instrument to deliver the mixture to the detection bead column. The pre-equilibrium concentrations of free ligand is fit to the standard bimolecular rate equation to obtain kₒₙ.
(§5) Kinetic Exclusion Assay (KinExA). All experiments were performed on a KinExA 3200 instrument with siliconized flow cell (Sapidyne Instruments Inc). […] 30 μg of receptor was incubated in 1 ml of 50 mM sodium bicarbonate, 0.5 M sodium citrate buffer, pH 8.3, for 2 hr at room temperature with rocking. Beads were allowed to settle by gravity and liquid removed. Beads were blocked by incubating in 1 ml of 10 mg/ml BSA in 1 M Tris buffer, pH 8.0, for 1 hr at room temperature with rocking, and stored in blocking buffer at 4° C. for up to one week until use. Running buffer contained PBS with 10 mM imidazole and 0.02% sodium azide. Samples were prepared in running buffer with 1 mg/ml BSA. Binding reactions were prepared with a fixed concentration of PDGF/VEGF ligands and dilution series of PDGFR or VEGFR. Captured PDGF/VEGF ligands were detected using a Dylight 649-conjugated anti-FLAG antibody (Rockland) at 1:1000 dilution in sample buffer. Kinetic experiments were performed with the “Kinetics Injection” method defined in the KinExA software. Data were analyzed with KinExA Pro Software. The Kd was determined from a global fit of two concentration curves using the “n-curve analysis” tool and the titrant concentrations as reference. […] The kₒₙ was calculated as a fit of the pre-equilibrium free ligand concentrations to the bimolecular binding equation using the “Kinetics Injection” tool.

[11] = target: T4, VEGFR2-His (residues 1-764 of VEGFR2, …); experiment: KinExA Kinetics Injection
Experimental: as §4, §5

[12] = target: T1, PDGFRβ-His (residues 1-314 of PDGFR-β …); experiment: KinExA, calculated from Kd and kon
Experimental: (§6) By performing two experiments with fixed ligand concentrations above and below the Kd, and fitting both sets of data with a nonlinear regression analysis, a more accurate measurement for the affinity can be obtained.
as §4, §5

[13] = target: T4, VEGFR2-His (residues 1-764 of VEGFR2, …); experiment: KinExA, calculated from Kd and kon
Experimental: as §6, §4, §5

[14] = target: T8, human VEGFR on human umbilical vein …; experiment: flow cytometry on HUVECs, soluble ligand titrated 3 h at 4 C, anti-FLAG-PE
Experimental: as §2, §3

[15] = target: T1, PDGFRβ-His (residues 1-314 of PDGFR-β …); experiment: KinExA, equilibrium titration in solution, n-curve analysis
Experimental: (§7) For KinExA measurements, a constant amount of PDGF/VEGF ligand is titrated with differing concentrations of PDGRβ-His or VEGFR2-His. The solutions are incubated for an appropriate amount of time to allow the ligand-receptor binding reaction to reach equilibrium. The solution is then briefly exposed to a solid support containing immobilized PDGFR or VEGFR, which captures unbound ligand. The amount of ligand bound to the solid support is then detected using a fluorescently-labeled antibody. […] For each binding interaction measured, curves for two concentrations of the constant ligand are performed. By performing two experiments with fixed ligand concentrations above and below the Kd, and fitting both sets of data with a nonlinear regression analysis, a more accurate measurement for the affinity can be obtained.
(§8) Kinetic Exclusion Assay (KinExA). All experiments were performed on a KinExA 3200 instrument with siliconized flow cell (Sapidyne Instruments Inc). […] 30 μg of receptor was incubated in 1 ml of 50 mM sodium bicarbonate, 0.5 M sodium citrate buffer, pH 8.3, for 2 hr at room temperature with rocking. Beads were allowed to settle by gravity and liquid removed. Beads were blocked by incubating in 1 ml of 10 mg/ml BSA in 1 M Tris buffer, pH 8.0, for 1 hr at room temperature with rocking, and stored in blocking buffer at 4° C. for up to one week until use. Running buffer contained PBS with 10 mM imidazole and 0.02% sodium azide. Samples were prepared in running buffer with 1 mg/ml BSA. Binding reactions were prepared with a fixed concentration of PDGF/VEGF ligands and dilution series of PDGFR or VEGFR. Captured PDGF/VEGF ligands were detected using a Dylight 649-conjugated anti-FLAG antibody (Rockland) at 1:1000 dilution in sample buffer. Kinetic experiments were performed with the “Kinetics Injection” method defined in the KinExA software. Data were analyzed with KinExA Pro Software.

[16] = target: T4, VEGFR2-His (residues 1-764 of VEGFR2, …); experiment: as above
Experimental: as §7, §8

T4 sequence (P35968 other isoform, or with tags, fused parts or gaps limits assumed, form in doubt): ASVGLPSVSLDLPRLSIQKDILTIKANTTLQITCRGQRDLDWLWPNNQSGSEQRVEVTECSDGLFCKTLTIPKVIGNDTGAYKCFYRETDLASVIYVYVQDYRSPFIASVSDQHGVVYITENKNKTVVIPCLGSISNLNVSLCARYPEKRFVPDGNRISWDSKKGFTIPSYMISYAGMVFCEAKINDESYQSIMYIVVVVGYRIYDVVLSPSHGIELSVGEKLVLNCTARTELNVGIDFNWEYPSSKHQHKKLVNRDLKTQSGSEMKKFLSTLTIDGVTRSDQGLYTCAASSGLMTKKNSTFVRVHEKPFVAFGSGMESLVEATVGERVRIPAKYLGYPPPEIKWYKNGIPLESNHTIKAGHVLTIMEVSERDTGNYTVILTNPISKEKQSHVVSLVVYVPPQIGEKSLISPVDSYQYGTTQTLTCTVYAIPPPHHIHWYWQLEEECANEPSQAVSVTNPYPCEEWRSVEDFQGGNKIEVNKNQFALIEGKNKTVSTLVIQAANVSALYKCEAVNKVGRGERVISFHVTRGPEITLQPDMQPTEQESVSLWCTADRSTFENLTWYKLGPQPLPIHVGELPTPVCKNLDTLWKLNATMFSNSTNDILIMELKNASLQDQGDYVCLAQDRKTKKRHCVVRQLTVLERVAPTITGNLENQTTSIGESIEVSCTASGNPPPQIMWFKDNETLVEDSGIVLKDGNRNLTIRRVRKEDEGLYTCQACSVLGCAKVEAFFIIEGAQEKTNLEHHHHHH
T5 sequence (P35968 20-764): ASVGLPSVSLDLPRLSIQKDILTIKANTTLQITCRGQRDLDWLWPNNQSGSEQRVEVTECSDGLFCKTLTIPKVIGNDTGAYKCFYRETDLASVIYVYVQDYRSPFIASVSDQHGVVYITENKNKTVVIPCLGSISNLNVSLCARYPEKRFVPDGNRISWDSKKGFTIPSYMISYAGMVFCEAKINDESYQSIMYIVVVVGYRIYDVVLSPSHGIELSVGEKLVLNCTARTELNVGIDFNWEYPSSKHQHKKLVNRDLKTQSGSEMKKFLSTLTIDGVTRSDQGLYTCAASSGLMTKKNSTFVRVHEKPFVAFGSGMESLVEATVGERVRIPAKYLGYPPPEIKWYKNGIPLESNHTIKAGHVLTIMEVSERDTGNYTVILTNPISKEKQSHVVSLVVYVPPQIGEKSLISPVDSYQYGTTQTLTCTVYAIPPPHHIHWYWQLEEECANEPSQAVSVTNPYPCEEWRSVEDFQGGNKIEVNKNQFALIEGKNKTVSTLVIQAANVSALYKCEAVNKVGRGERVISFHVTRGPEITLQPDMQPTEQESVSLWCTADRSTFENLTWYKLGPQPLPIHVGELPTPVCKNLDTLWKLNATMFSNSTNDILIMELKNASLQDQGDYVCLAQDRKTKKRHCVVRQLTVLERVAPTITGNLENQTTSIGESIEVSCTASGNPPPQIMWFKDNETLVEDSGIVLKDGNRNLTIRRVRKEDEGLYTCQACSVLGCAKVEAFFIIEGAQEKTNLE
T8 sequence (P35968 20-1356 limits assumed): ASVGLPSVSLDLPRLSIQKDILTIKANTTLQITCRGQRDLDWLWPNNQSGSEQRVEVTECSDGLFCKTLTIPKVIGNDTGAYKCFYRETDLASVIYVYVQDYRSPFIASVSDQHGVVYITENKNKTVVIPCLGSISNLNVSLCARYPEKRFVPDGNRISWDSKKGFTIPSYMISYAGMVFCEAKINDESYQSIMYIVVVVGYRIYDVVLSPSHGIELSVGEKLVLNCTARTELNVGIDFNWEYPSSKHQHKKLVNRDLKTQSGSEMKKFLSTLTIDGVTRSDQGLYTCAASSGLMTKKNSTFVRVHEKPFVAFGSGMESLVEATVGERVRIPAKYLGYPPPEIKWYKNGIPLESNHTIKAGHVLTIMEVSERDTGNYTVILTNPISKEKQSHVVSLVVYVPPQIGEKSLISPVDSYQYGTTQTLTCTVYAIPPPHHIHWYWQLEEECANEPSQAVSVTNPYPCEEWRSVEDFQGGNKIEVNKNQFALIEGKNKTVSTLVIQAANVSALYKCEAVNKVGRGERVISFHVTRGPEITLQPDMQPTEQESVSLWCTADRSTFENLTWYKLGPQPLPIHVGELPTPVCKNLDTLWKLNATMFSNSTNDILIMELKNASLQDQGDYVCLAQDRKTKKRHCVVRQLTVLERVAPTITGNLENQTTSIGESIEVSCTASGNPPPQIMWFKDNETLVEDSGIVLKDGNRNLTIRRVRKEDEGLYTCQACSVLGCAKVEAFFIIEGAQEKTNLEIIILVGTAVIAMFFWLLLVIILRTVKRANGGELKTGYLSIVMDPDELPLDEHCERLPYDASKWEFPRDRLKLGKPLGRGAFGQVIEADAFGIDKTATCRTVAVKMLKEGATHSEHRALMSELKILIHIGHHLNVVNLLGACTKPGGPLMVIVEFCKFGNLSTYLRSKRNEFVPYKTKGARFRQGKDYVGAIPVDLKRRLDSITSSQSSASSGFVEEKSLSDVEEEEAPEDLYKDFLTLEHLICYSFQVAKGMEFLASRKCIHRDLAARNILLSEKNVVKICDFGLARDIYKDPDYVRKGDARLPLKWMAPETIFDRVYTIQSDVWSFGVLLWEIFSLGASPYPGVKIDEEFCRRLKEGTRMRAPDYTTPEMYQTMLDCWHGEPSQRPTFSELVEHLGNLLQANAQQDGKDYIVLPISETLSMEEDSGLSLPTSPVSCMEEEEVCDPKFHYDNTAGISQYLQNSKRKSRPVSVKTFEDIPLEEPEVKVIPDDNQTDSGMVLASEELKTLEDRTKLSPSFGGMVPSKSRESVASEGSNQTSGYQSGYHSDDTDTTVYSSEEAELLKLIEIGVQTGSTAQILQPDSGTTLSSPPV
T3 sequence (P35968 20-764): as the sequence (P35968 20-764) above

B1: PVRF (PV6 with K87R and I182F), yeast-displayed (designed binder)
chain: IAEPAMIAECHPIETLVDIFQEYPDEIEYIFKPSCVPLMRCGGCCNNRNVQCRPTEESNITMQIMRIKPHQGQHIGEMSFLQHNKCRCETVAAGSTSGSGKSSEGKGEVVKFMDVYQRSYCKTRTEVFEISRRLIDRTNANFLVWPPCVEVQRCSGCCNDEGLECVPTQVQLRPVQVRKIEFVRKKPIFKKATVTLEDHLACECRPKKD
In the case of B1, the “EC50 (read off the curve)” value [1] is reported as about 0.3 nM, the Kd [2] is reported as 0.24 nM and the binding result (VEGFR2-Fc (R&D Systems)) is reported as “binds”. The Kd [3] was 0.37 nM and the “EC50 (read off the curve)” value [4] was about 0.2 nM.

B2: V4-22 (PV6 with F20L, E28G, Q71R, D160H), yeast-displayed (designed binder)
chain: IAEPAMIAECHPIETLVDILQEYPDEIGYIFKPSCVPLMRCGGCCNNRNVQCRPTEESNITMQIMRIKPHRGQHIGEMSFLQHNKCKCETVAAGSTSGSGKSSEGKGEVVKFMDVYQRSYCKTRTEVFEISRRLIDRTNANFLVWPPCVEVQRCSGCCNHEGLECVPTQVQLRPVQVRKIEIVRKKPIFKKATVTLEDHLACECRPKKD
notes: Variant from the Vshuf library
Binder B2 has a Kd [5] of 1.3 nM and a Kd [6] of 1.9 nM.

B3: PDGFRβ-Fc (residues 1-314 of PDGFR-β fused to the Fc region of mouse IgG2a) (Fc fusion)
chain: LVVTPPGPELVLNVSSTFVLTCSGSAPVVWERMSQEPPQEMAKAQDGTFSSVLTLTNLTGLDTGEYFCTHNDSRGLETDERKRLYIFVPDPTVGFLPNDAEELFIFLTEITEITIPCRVTDPQLVVTLHEKKGDVALPVPYDHQRGFSGIFEDRSYICKTTIGDREVDSDAYYVYRLQVSSINVSVNAVQTVVRQGENITLMCIVIGNEVVNFEWTYPRKESGRLVEPVTDFLLDMPYHIRSILHIPSAELEDSGTYTCNVTESVNDHQDEKAINITVVESG
notes: range 1-314; Expressed in FreeStyle 293-F cells; also called PDGRβ-Fc; PDGFR-Fc; not shown: Fc region of mouse IgG2a
With B3 the “IC50 of inhibition of NIH/3T3 proliferation stimulated by scPDGF, alamarBlue” value [7] was 8.7 nM, the “IC50 of inhibition of stimulation by 100 pM scPDGF, PathHunter reporter cells” value [7] was 130 pM and the “EC50 (read off the curve)” value (scPDGF, yeast-displayed) was about 0.03 nM.

B4: PV1 PDGF/VEGF hybrid construct, yeast-displayed (designed binder)
chain: IAEPAMIAECKTRETLVDIFQEYPDEIEYIFKPSCVPLMRCSGCCNNRNVQCRPTEESNITMQIMRIKPHQGQHIGEMSFLQHLACKCETVAAGSTSGSGKSSEGKGEVVKFMDVYQRSYCHPITEVFEISRRLIDRTNANFLVWPPCVEVQRCGGCCNDEGLECVPTQVQLRPVQVRKIEIVRKKPIFKKATVTLEDHNKCECRPKKD
B4: binds [8].

B5: PV6 PDGF/VEGF chimera, soluble, N-terminal FLAG and C-terminal hexahistidine tags (designed binder)
chain: DYKDDDDKIAEPAMIAECHPIETLVDIFQEYPDEIEYIFKPSCVPLMRCGGCCNNRNVQCRPTEESNITMQIMRIKPHQGQHIGEMSFLQHNKCKCETVAAGSTSGSGKSSEGKGEVVKFMDVYQRSYCKTRTEVFEISRRLIDRTNANFLVWPPCVEVQRCSGCCNDEGLECVPTQVQLRPVQVRKIEIVRKKPIFKKATVTLEDHLACKCRPKKDHHHHHH
notes: Secreted from S. cerevisiae YVH10 and treated with Endo Hf; also called soluble PV6
For B5, the “EC50 (read off the curve)” value [9] was about 10 nM, the kon [10] was 2.2e+07 M⁻¹ s⁻¹ and the kon [11] was 240000 M⁻¹ s⁻¹. The koff [12] was 0.019 s⁻¹, the koff [13] was 0.0092 s⁻¹ and the Kd [14] was 11 nM. For the same binder, the Kd [15] was 0.87 nM and the Kd [16] was 38 nM.
